Assay [1] addresses myosin II, full-length, purified from rabbit skeletal muscle (rabbit, UniProt Q28641 1-1938, Deletion taken as residues 600-630, as the methods print for the mutant; the description gives the loop as N601-D630, so residue 600 is uncertain. Full-length canonical isoform (931 aa) assumed. His-t). In words: SPR; BIAcore X100; His-tagged UNC45B constructs (0.2 uM) captured on Ni2+-NTA sensor chip; myosin analyte 1 up to 3500 nM at 5 ul/min; HBS-P (10 mM HEPES, 150 mM NaCl, 0.005% Tween20, pH 7.4) plus 50 uM EDTA; 20 C; steady-state signal fitted to a 1:1 one-site saturation model; n=3. Conditions: both partners purified.

Assay [2] concerns the target myosin II, full-length, purified from rabbit skeletal muscle (rabbit, UniProt Q28641 1-1938). Described as above. As to conditions: both partners purified.

As usually defined, the Kd is the equilibrium constant for the complex coming apart.

B1: UNC45B loop deletion mutant (residues 600-630), Homo sapiens (natural protein)
chain: MAEVEAVQLKEEGNRHFQLQDYKAATNSYSQALKLTKDKALLATLYRNRAACGLKTESYVQAASDASRAIDINSSDIKALYRRCQALEHLGKLDQAFKDVQRCATLEPRNQNFQEMLRRLNTSIQEKLRVQFSTDSRVQKMFEILLDENSEADKREKAANNLIVLGREEAGAEKIFQNNGVALLLQLLDTKKPELVLAAVRTLSGMCSGHQARATVILHAVRIDRICSLMAVENEEMSLAVCNLLQAIIDSLSGEDKREHRGKEEALVLDTKKDLKQITSHLLDMLVSKKVSGQGRDQALNLLNKNVPRKDLAIHDNSRTIYVVDNGLRKILKVVGQVPDLPSCLPLTDNTRMLASILINKLYDDLRCDPERDHFRKICEEYITGKFDPQDMDKNLNAIQTVSGILQGPFDLGNQLLGLKGVMEMMVALCGSERETDQLVAVEALIHASTKLSRATFIITNGVSLLKQIYKTTKNEKIKIRTLVGLCKLGSAGGTDYGLRQFAEGSTEKLAKQCRKWLCNMSIDTRTRRWAVEGLAYLTLDADVKDDFVQDVPALQAMFELAKAGTSDKTILYSVATTLVNCTNSYDVKEVIPELVQLAISALACMVKADSAILTDQTKELLARVFLALCDNPKDRGTIVAQGGGKALIPLALEGTDVGKVKAAHALAKIAAVSNPDIAFPGERVYEVVRPLVRLLDTQRDGLQNYEALLGLTNLSGRSDKLRQKIFKERALPDIENYMFENHDQLRQAATECMCNMVLHKEVQERFLADGNDRLKLVVLLCGEDDDKVQNAAAGALAMLTAAHKKLCLKMTQVTTQWLEILQRLCLHDQLSVQHRGLVIAYNLLAADAELAKKLVESELLEILTVVGKQEPDEKKAEVVQTARECLIKCMDYGFIKPVS
As to B1, the Kd in assay [1] stood at 2.63 µM.

B2: UNC45B (wild type), Homo sapiens (natural protein, human, UniProt Q8IWX7 1-931, looked up)
chain: MAEVEAVQLKEEGNRHFQLQDYKAATNSYSQALKLTKDKALLATLYRNRAACGLKTESYVQAASDASRAIDINSSDIKALYRRCQALEHLGKLDQAFKDVQRCATLEPRNQNFQEMLRRLNTSIQEKLRVQFSTDSRVQKMFEILLDENSEADKREKAANNLIVLGREEAGAEKIFQNNGVALLLQLLDTKKPELVLAAVRTLSGMCSGHQARATVILHAVRIDRICSLMAVENEEMSLAVCNLLQAIIDSLSGEDKREHRGKEEALVLDTKKDLKQITSHLLDMLVSKKVSGQGRDQALNLLNKNVPRKDLAIHDNSRTIYVVDNGLRKILKVVGQVPDLPSCLPLTDNTRMLASILINKLYDDLRCDPERDHFRKICEEYITGKFDPQDMDKNLNAIQTVSGILQGPFDLGNQLLGLKGVMEMMVALCGSERETDQLVAVEALIHASTKLSRATFIITNGVSLLKQIYKTTKNEKIKIRTLVGLCKLGSAGGTDYGLRQFAEGSTEKLAKQCRKWLCNMSIDTRTRRWAVEGLAYLTLDADVKDDFVQDVPALQAMFELAKAGTSDKTILYSVATTLVNCTNSYDVKEVIPELVQLAKFSKQHVPEEHPKDKKDFIDMRVKRLLKAGVISALACMVKADSAILTDQTKELLARVFLALCDNPKDRGTIVAQGGGKALIPLALEGTDVGKVKAAHALAKIAAVSNPDIAFPGERVYEVVRPLVRLLDTQRDGLQNYEALLGLTNLSGRSDKLRQKIFKERALPDIENYMFENHDQLRQAATECMCNMVLHKEVQERFLADGNDRLKLVVLLCGEDDDKVQNAAAGALAMLTAAHKKLCLKMTQVTTQWLEILQRLCLHDQLSVQHRGLVIAYNLLAADAELAKKLVESELLEILTVVGKQEPDEKKAEVVQTARECLIKCMDYGFIKPVS
notes: UNC45B, Homo sapiens, codon optimized for E. coli, synthesized (GenScript), in a pET-28 vector; also called wild-type UNC-45B; source: E. coli BL21 DE3, purified (HisPur Ni-NTA resin)
In the case of B2, the Kd in assay [2] is 0.33 µM.

(Values after article PMC10884834, “SPR spectroscopic analysis of myosin binding to wild type and mutant UNC45B” (microPublication Biology, 2024).)
